Measured values: the DeepSol protein solubility set

assay: soluble on expression in E. coli; label from the status in PepcDB or PDB records

Soluble on expression in E. coli, not soluble:
MGSDKIHHHHHHMNFDVAIIGGGLAGLTCAIALQQRGKRCVIINNGQAAIDFASGSLDLLSRMPSTTYGENRAVENLKENITALRNELPAHPYSLLGAEKVLAKAQDFERLANELHLDLIGSTEKNHWRVTGLGSLRGAWLSPNSVPTVQGNEPFPHKRIAVLGIEGYHDFQPQLLAANLVLNPQFEHCEVTSGFLNIPQLDELRKNAREFRSVNISQLLEHKLAFKDLVKEIIESAQGAEAVFLPACFGLENQEFMTALRDATKLALFELPTLPPSLLGMRQRIQLRHKFESLGGLMINGDSALNATFEGNQVRCINTRLLEDEEITADNFVLASGSFFSKGLISEFDKIYEPVFESDIIGVEGFNNKDRFTWTAHRFAHPQPYQSAGVAINAQCQVKKCGQFLTNLYAVGNVIGGFNALELGCGSGVAVVTALAVADEILAK
MGSDKIHHHHHHMNFPELKLSQTERDFNFDFAILEHDLSYFFEKRCLDYALEHINRFNHKIKDNLYNVRPLILKEALISLTCDLASVSFYHYLNMITFVNLRKDILHYLTTTTLTNDDFMPLLESIVNNYFSNLDTLDIPIDGTRLSKQVALVVYYIDNHCDEPLRANTILEELTLDPEYTKRKFRKELGFTINFYIRHAKLQRAKQLLINTHLPIGEIAERINFYNSAEFARQFQKEFDITPSKYRELNQIFYKEE
MGSDKIHHHHHHMNGKTIILANPRGFCAGVDRAISIVERALEEFGAPVYVRHEVVHNKFVVDNLREKGAVFIEDLAEVPPGATLVYSAHGVSKAVQQEAAERGFRVFDATCPLVTKVHKEVARLDAQDCEIIMIGHKGHAEVEGTMGQLAPGKMLLVETVGDVAKLEVRNPDKLAYVSQTTLSVDETKDIIAALNARFPNIRNPHKEDICYATTNRQTAVKELAEQCDIVIVVGSPNSSNSNRLREVAASRGIDAYMVDNASYLQRTWFEGKSKVGVTAGASAPEVLVREVLATIRGWGHETVREGGGAEESIVFVLPKELRREGETKPDLCKR
MGSDKIHHHHHHMNGNIIVAHGMRHGRQNQALEAFISELVKDDIHHYDIAFLESEHQDLETVMTTLIQSGVDHFKIVPLLIFSAMHYLKDIPNIVHEMKRRYPDIKVEVSEPLGTHPLMRRLIEQRICDALAGDEQQVGVMVVAHGNINGNFTKAHEELQICAQHLQINKPTYARTLYGEISFTHDLESISKRYQKLIVVPLFLYDGRLVNKVKQQMNDMVINTDIHFTPSINFDPILKQIINDRLESLMIPMKI
MGSDKIHHHHHHMNIKHLDVLRTLLATGSTIAAAKAMGLSQSGVSRMLQQLESDLAITLFARDKGRLIPTPEATVLGRDAQNVLLAIERMSGHAEDLRNGSAGPEIVRIGLPSSMWENFAPAMLIDYVRDFPGVRIETFFETTTAITKLVEERVIDLGFLRIEGETGPGIAIDKVASGESVCVVPKDHSLAELPEITVKHLRNVPLILIGRQRPNRMALDQAFQRAGVKQMVKIETHTNSSACSYVAHGLGVSIISSFYANLYRHLPVVYRPFVPRATQEFGLVRAAGVPLSIAAQALSDALKKQIRLSQEEQ
MGSDKIHHHHHHMNILVTGGAGFIGSHVVDKLIENGYGVIVVDNLSSGKVENLNRNALFYEQSIEDEEMMERIFSLHRPEYVFHLAAQASVAISVREPARDAKTNIIGSLVLLEKSIKYGVKKFIFSSTGGAIYGENVKVFPTPETEIPHPISPYGIAKYSTEMYLEFFAREYGLKYTVLRYANVYGPRQDPYGEAGVVAIFTERMLRGEEVHIFGDGEYVRDYVYVDDVVRANLLAMEKGDNEVFNIGTGRGTTVNQLFKLLKEITGYDKEPVYKPPRKGDVRKSILDYTKAKEKLGWEPKVSLEEGLKLTVEYFRKTLE
MGSDKIHHHHHHMNIPNIRLLNQQLLNPLFREPKELVSWMGAMQAQNYSMVKWAVGMRLKSATIQTVEKALREGEILRTHVMRPTWHLVAAEDIRWMLKLSAQRIISANDSFAKGYDLDIPNELYTKAHDLLEKILCGKKSLTKQEIAEHFNRSGIVADNRRMTRFMARAEQEGIICSGEDRGSKCTYALLEERVPPMPELTKDESLARLARSYFRSHSPAVLQDFIWWSGLSVSDAKQAVYLIASELITEQWKEQTWYIHDICRTRGKLSGHIHLLPSYDEYLLGYKDRTDVLPLEHYSKAFTNNGLFFPIVLHNGQVIGNWDKSVKKKSVDLKYSWFRQVADMNEETLERERQKFTRFLEK
MGSDKIHHHHHHMNIQKVTFRNADMAWDMAALILLPEGFDESKRYPTMVSVHPFGSCKEQTSSAVYGKALAELGYVVIAFDASFQGESGGSPRYVEDPSQRVEDISRVIDYAVSLPYVDEDRIGGLGICGGGAYIFSSALTEKRLKAVVGITPVNLGRLFREGFSQYNPIGALEAMATQRTAEARGAELQVNELLPPSPEFAKQNGMTERDLFEATDYYKTPRGQAEGGATRMLFSHAQKTLSWDAFAFVETLMTQPMMAVVGQKLGAFGAYRDGHEVYGRSIVSKDRQLVELQDWSHYDLYDHPQAVSLAMEKIGPFLSQHL
MGSDKIHHHHHHMNITNNRQYSWVGSREMCLDEISIKQYGEIVIGKYGGNISAGANKNEDGALVWSNGDWEFAAILDGHNSAESVDLVVNTIQKEYENIKEMMNESIDTVFRSIENHILTIFQSSSFKEKCQRIKGETACLLCVRKENYIWWLSIGDCLVYVFHDELHKLGQYALNQRHFYEWIGNVNTFDVPVPCYSSGIRELRTGNNRIVMVTDGVLEYGERRYETPLNLYNDMNRNNIKLEESVHHVLEHVHHQFGRDSATIISWDVENKGKATYPSDQPDKK
MGSDKIHHHHHHMNKDIPVLIFSDKLNINGDYPIIKIINEQSLPYILKHEIGGLKDWFKSRVIPTNRNHLEKLIESLQFEKKPTALDYLKLNNGFSLNDSYWIKPLDISSMYPKDLCWDKYNLYDNKFEEALGLVTFFGNNTSLGGTVNTPKVSSPELTTQGVMNKAWRRTDNKLLLYKRGNIGAANLDKEHFSESIASEIGKILGLNCIPYWTDKWHNQNCSVCEIFTNKDKGYLPFRYFLEAIEPNRKKWGFANVIEWIPKEFKQDFLDMIVFDYIIENRDRHLGNFGFIIDNNTQELLSFAPLFDQGYSLMANALEEDFNKDLKEYSESHPSFVLENKDLAKYVIERNKQRYKGFTKTLRLKIDDINWFNCPNWYKEGIKKLIFTRCEVINSI
MGSDKIHHHHHHMNKEVDLSVSCLGKVKELKYDVIILPWGATEPHNLHLPYLTDCILPHDIAVEAAELALSRSGVRCMVMPPVPFGAHNPGQRELPFCIHTRYATQQAILEDIVSSLHVQGFRKLLILSGHGGNNFKGMIRDLAFEYPDFLIAAANWFEVVSPKGYFEAEIDDHAGESETSVMMHYHPELVNLAEAGDGESKPFAIASLNEKVAWVPRHWDKATVDSGVGNPKKATAEKGERYVKPIVEKLAGLFEEMAQHDLYE
MGSDKIHHHHHHMNKKGNTEEIIERLFSILSSEKDSIEFLKAVSEFSKFYEIDKKEQERRSSEAKSFVKMALQDFESVKILYQSKIYSLAVYHLQQAVEKYVKAYVLAFFGLSKKEMKGYVGHDSPKAFIRLLDRYKRSLELFLKSIQKIGGLDTQFLKISDEDIRKLVRIVNMSRKQIAEMDSNQIKGIINATIKIKIALENKEIKNQILGLLSKLKNEASEIKSSDPSEKFILEKLIDSVDRVLNNLETLLKLSSTFLVLYMLSIITYPHATFARYPNKTLPPEKYDENLGIVQYFNEIVKLLDEVANLLVYEI
MGSDKIHHHHHHMNKLINRISPETSENRILHAGFSIILMSEEITQTLSGLSSDMIIFILSGSITIYSTKEEKKTIGEQYMIFLRSFENYTYDITLGSKIIIFFFDSLTMNELPYYQHPYGILPQPISKWIELKIVEPLYGFLELVGQYLENNFLNYPLYELKRTELFYLLKKLYRKEELDYFFYLSSTHSAEFERLIAENYIKAKTVTDLAQMIGYGVNSFRMKFKKVFGIPAYEWLMQEKSKRLLVAIANSEDDFKNIIDEFDFSSHSHFYKFCKARFGYSPTELRKKLKSL
MGSDKIHHHHHHMNKLKIGTSGWVYKHWMDIFYPPNLPSDQQLSFYAQHFATVEINFSFYRLPERSVFETWHKQTPSNFLFAVKGSRYLTHMKKLKDPIEPLSRIMERASGLQEKLGPILFQFPHTWHINIERLQPFLELLQTYPKQKFTVEFRHSSWLIPQVYQLLETAGVGLCLPVSPTVPLDICLTAPWTYIRMHSGQWNVGYTDEELSTWVERIRSFLMQEIDVYVYFNNDPDGNAIRDAQRLYCLLGSC
MGSDKIHHHHHHMNLPTASRLQFTPDLNICRILNGMWQVSGAHGRINPQAAIETMFKYLDAGFTTWDLADHYGPAEDFIGEFRCQLIDTRGKDALSKVQAFTKWVPRPGKMTKKLVEENIDISLRRMNVESLDLMQFHWWEYQDKNYLDALKYMAELQTEGKIKHLGLTNFDTENLKLITEAGIKIVSNQVQFSLIDRRPEVNMAEFCQQHDIKLFTYGTLCGSLLSENYLGKPEPRGSDLSTASLKKYKNMIDAWGGWQLFQELLAILKEIANKHKVSISNVAVRYILDQPTVGGVIVGARLGVSEHIEDNAKVFSFSLDADDRDRISAVSRQSRDLYQLIGDCGDEYRR
MGSDKIHHHHHHMNMEINPSEYKILIVDDVMSNVLLLKVLLTNEKFNIVTASNGNQALDQVKKENPDLILLDVMMPDMSGFEVSQKLKADPEAAHIPIIFLTALNSTADIVKGFQVGGNDFISKPFNKEELIIRVSHQISLVAAKRIIEAKTEELKKTIIGRDKLYSVIAHDLRSPMGSIKMVLNMLILSLPKEKIGEDMYELLTMANQTTEDVFSLLDNLLKWTKSQIGKLKVVYQDIDMVEVVEGVGEIFAMVAGLKNIRLRIESPECQAVHADIDMIKTVIRNLISNAIKFSNEGSEVLIKVEESDGMSVVSVKDSGCGIDEESQKKLLHTDTHFSTFGTNNEEGSGLGLLLCQDFVVKNGGKLWFTSVKDEGSTFYFSIPLKK
MGSDKIHHHHHHMNMFSHINVDACKTPGCKNLGILGSPDYLPQGKNVLCRACGFLFPIISARSLNLFRQAANQPWKGLVKSCPHCGGTSLKKYGFSTKGERRMYCRQCNKTFISYTAIRSDARQENLATLIGEGASLVEIRAALAIDSTGFSRELQKLSRRANQAERDFVFPAFDIAMSTRAFRVKFNGGDSSLYVLVTAEEESGKVVAISTNYSAQPVEADYQYHSDYEERLPSGTLAHLVQRKEALTMRRNVLFDVDYGPAVLYKNDPGMLVKPVLPAYRHFELVQALTDERSLNVQHYLDHECFILGGCMMANFSYLRQGRCHISFVRERGVTPPKRDLPPRLFLSGGIRNNVWRTFSTRDYAMAVCNLTGNKKVSLLRHATLNSATAFIRYVHNHPFLPHLNRMSPGNVVAVLDYLKFEYNASRN
MGSDKIHHHHHHMNPEFIHGATEIETTNRGLRPHRLSKEIVERYCDPQFSAMERQPSGVRVVCRTTATSVTLTTYSTRVVYLDSGRPGGKIDVLIDGAPTSSTPTSGGETTEVNFITGATERRLKDPQVLTVDGLSEQEKVVEFWLPHNEEIEVISLKANAALNTVEDTRPVWINYGSSISHGSVATAPTKIWPAIVAQSKNYNLRNFGFGGSAMLDPFMARLIRDTPADLITLEIGINIVNGDVMRRRGLEAAVDGFINTIRDGHPTTPIKIVSPFYCPIHEKTPGPGAFDTSSFGSGQIRFIATGEPDEHGRLTLEMVREVLEGFVEKQKDPHLTYVDGASLYQASDAPLLDNLHPDEASHALIAQRLLKQL
MGSDKIHHHHHHMNPIQHILDTYPLIVLDGAMATELERKGCNLNDSLWSAKILMEEPELIKQVHTDYFAAGADCAITASYQSTFEGFAARGLSEAEARRLIELSVSIAAEARDEFWSLEENRLNRPKPIIAASIGPYGAYLADGSEYRGNYAISEDELIEFHRPRMKALIEAGADVLACETIPCLTEAKAIVRLLKEFPETYAWISFSAKDGLHISDGTPAADCASWLDEHRQIAALGINCTPLQHIPSLIEELKKNTSKPIIVYPNSGEQYDPETKTWNGAACAESYGASARTWHEKGARLIGGCCRTKPENIQEIAAWARSLKTT
